Data set [1] has as its target T1, Sam68 C-terminal region (UniProt Q07666 267-368). The data set is described as follows: NMR titration; second estimate (probably Arg side chains); NMR: HSQC at 4 C (NMR buffer not given in material; purification in 50 mM sodium phosphate, 150 mM NaCl, pH 7.6 N-term / pH 7.0 C-term). Pull-down: 20 mM HEPES. The following applies: protein: recombinant; tags: GST removed by PreScission.

Data set [2] concerns the target T2, Sam68 N-terminal region (UniProt Q07666 1-96). Described as above. As to conditions: protein: recombinant; tags: His-tag removed by TEV.
For data set [3], the target named is T2, Sam68 N-terminal region. The data set is described as follows: NMR titration; one of two estimates (backbone or Arg side chains; panel assignment not clear, error suggests eight backbone resonances); text range 1-10 uM; NMR: HSQC at 4 C (NMR buffer not given in material; purification in 50 mM sodium phosphate, 150 mM NaCl, pH 7.6 N-term / pH 7.0 C-term). Pull-down: 20 mM HEPES. As to conditions: protein: recombinant; tags: His-tag removed by TEV.

Data set [4] deals with T1, Sam68 C-terminal region. The data set is described as follows: NMR titration; one of two estimates (backbone or Arg side chains; panel assignment not clear, error suggests eight backbone resonances); text range 30-70 uM; NMR: HSQC at 4 C (NMR buffer not given in material; purification in 50 mM sodium phosphate, 150 mM NaCl, pH 7.6 N-term / pH 7.0 C-term). Pull-down: 20 mM HEPES. The following applies: protein: recombinant; tags: GST removed by PreScission.

T1 sequence (Q07666 267-368): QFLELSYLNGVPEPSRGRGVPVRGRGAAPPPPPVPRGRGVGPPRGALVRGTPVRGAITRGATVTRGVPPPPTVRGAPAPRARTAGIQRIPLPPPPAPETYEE
T2 sequence (Q07666 1-96): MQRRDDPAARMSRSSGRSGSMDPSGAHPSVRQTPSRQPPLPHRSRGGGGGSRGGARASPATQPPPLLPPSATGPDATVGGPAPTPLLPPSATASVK

Consider CUGGGUGACACACUAGCUAUAGCAUUAAAAGACCGAGCAAGU (ssRNA) [G8.5 RNA], for which the Kd – broadly, the concentration at which binding is half-saturated – with Sam68 C-terminal region [1] is 68 µM; with Sam68 N-terminal region [2], 12 µM; in the data set with Sam68 N-terminal region [3], 3.5 ± 1.2 µM; with Sam68 C-terminal region [4] it was 32 ± 5 µM.

Values taken from paper PMC9825155, “Cdk1-mediated threonine phosphorylation of Sam68 modulates its RNA binding, alternative splicing activity and cellular functions”.
